We go through 1 molecule from patent US20100196361A1, “Method of inhibition of vascular development using an antibody” (DYAX CORP., priority 2003, published 2010).

The target of assay [1] is T1, human Tie1 Fc (Homo sapiens, UniProt P35590).
T1 construct: selected against the Tie1 extracellular domain fused to human Fc or to a histidine purification tag
T1 sequence (P35590 22-759 limits assumed): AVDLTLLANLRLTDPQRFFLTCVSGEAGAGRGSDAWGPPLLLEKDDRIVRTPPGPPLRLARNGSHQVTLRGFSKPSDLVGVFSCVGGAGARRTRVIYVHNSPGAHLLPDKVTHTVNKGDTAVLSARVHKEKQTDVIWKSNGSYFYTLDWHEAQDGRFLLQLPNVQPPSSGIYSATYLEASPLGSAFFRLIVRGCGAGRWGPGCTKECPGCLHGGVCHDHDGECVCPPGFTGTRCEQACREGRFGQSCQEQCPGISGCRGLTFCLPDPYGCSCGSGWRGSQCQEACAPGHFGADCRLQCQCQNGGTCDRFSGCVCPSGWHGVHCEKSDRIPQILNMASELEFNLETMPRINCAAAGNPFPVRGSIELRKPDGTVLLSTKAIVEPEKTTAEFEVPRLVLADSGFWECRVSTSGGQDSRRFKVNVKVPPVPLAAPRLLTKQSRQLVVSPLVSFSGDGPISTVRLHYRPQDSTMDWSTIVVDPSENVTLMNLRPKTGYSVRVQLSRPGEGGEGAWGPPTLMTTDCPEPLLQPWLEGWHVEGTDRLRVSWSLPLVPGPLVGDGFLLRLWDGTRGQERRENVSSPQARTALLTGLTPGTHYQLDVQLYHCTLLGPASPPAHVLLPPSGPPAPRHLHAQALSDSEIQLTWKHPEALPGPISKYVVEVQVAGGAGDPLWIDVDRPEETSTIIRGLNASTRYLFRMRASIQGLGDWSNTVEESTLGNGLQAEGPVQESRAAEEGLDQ
The assay can be described thus: BIAcore, Fab over Tie1/Fc coated on CM5 chip. The format is binding. The conditions noted are these: Fab analyte. An excerpt:
To evaluate if the binding behaviour had been affected in any way by the conversion of the somatic mutations back to germline residues, the parental and the germlined E3b antibodies were produced and tested in Biacore as Fab fragments. Here, by contrast to what was done for the IgGs (see Example 28), and in order to measure a monovalent interaction, the Fabs were run over the antigen directly coated onto the surface.
Recombinant human Tie1/Fc was coated on a CM5 chip. The surface of the chip was first activated with a 7-minute pulse of 0.05 M NHS/0.2 M EDC, then Tie1/Fc (2 μg/ml in 10 mM sodium acetate, pH 4.0) was run over the chip surface until 750 RUs were coated on the surface. All flow cells were subsequently deactivated with a 7-minute pulse of 1 M ethanolamine hydrochloride, pH 8.5. All further experiments were performed in HBS buffer.
The parental and the germlined E3b Fabs were prepared. A series of dilution (50, 25, 12.5, 6.25 and 3.125 nM) was prepared in HBS buffer. Samples were injected at 30 μl/min for 5.3 minutes using the KINJECT™ program. This was followed by a 10-minute dissociation phase, and the remaining Fab was stripped from the surface with a single 18-sec injection of 50 mM NaOH/1 M NaCl.
Sensorgrams were analyzed using the simultaneous ka/kd fitting program from the BIAEVALUATION™ software 3.1 assuming a 1:1 model.

Assay [2] has as its target T2, human Tie1-Fc fusion protein (Homo sapiens, UniProt P35590).
T2 construct: selected against the Tie1 extracellular domain fused to human Fc or to a histidine purification tag
T2 sequence (P35590 22-759 limits assumed): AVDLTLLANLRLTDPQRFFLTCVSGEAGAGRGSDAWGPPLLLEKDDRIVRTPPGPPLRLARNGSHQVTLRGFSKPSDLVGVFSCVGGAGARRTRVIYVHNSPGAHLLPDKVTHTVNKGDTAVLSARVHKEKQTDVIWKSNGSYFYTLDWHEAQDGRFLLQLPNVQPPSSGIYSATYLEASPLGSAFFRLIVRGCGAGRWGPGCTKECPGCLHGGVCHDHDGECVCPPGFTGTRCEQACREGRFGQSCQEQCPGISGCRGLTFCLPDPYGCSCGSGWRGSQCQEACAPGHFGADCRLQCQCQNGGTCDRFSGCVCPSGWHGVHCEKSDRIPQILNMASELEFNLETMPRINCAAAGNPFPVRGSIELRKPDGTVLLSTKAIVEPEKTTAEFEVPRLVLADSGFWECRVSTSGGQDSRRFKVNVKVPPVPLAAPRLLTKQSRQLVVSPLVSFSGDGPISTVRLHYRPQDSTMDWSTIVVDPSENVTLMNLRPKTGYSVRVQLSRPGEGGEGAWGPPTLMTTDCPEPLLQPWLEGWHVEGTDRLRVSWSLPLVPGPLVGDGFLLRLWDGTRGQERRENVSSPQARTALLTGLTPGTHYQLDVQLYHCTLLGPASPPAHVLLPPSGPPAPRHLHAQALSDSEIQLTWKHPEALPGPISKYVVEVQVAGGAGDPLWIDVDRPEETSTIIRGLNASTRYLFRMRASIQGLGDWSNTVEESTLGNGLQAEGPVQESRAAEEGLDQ
As to the kind of experiment: BIAcore 3000 affinity analysis of Fab and IgG. The format is binding. As for the experimental part:
Affinity analysis of the Fab and IgGs was performed using surface plasmon resonance using a BIAcore 3000 instrument. For this analysis both dimeric (Tie1-Fc fusion protein) and monomeric (Tie1-HIS) versions of the extracellular domain of the Tie1 were used. The sensor chips used in these experiments were CM5 (dextran-coated) which allow immobilization of proteins to the chip via standard amine coupling chemistries. The concentration of flowed antibody was determined using a surface plasmon resonance based method. Using a high-density protein A sensor chip, under mass transport limited conditions, the response signal is dependent only on the concentration of the antibody in the sample under test. This approach allows a precise determination of the antibody concentration, a parameter important for accurate determination of the KD.
470 RUs of Tie1 HIS protein were coated on a CM5 sensor chip and 5, 20, 100, and 500 nM of the Fab flowed over the chip at four different flow rates ([…]), rates in which the system is not mass transport limited. Kinetic data was typically determined using a range of analyte concentrations and three different chip coating densities. The data from the lowest coating density that gave a good signal was typically chosen, this was often in a range from 50-100 RUs. Using such low coating densities allowed the sensor curves to be fit using BIAEVALUATION™ 3.0 software to a 1:1 model, often even when using a bivalent analyte (IgG or Tie1-Fc fusion protein). For bivalent analytes, when fit to a 1:1 model was not possible, the curves were fit using a 2:1 model.
The anti-Tie1 antibodies described here bind to both human and mouse Tie1 molecules. The binding of the anti-Tie1 Fab to mouse Tie1-Fc fusion protein was compared with the binding of the anti-Tie1 Fab to human Tie1-Fc fusion protein. In both of these experiments the Tie1-Fc fusion protein was immobilized on the sensor chip and the anti Tie-1 Fab served as the analyte. Under these experimental conditions the anti-Tie1 Fab has very similar KD (˜3 nM) values for both the human and mouse Tie1-Fc fusion proteins (Table 9). Under conditions that are likely to mimic those used in the animal efficacy experiments, i.e. Tie1-Fc immobilized to the CM5 sensor chip and anti-Tie1 used as the analyte, the measured KD was 0.2 nM.

B1: E3b Fab: Fab with germlined HC and germlined LC sequence of E3 (antibody, V domains shown)
VH: EVQLLESGGGLVQPGGSLRLSCAASGFTFSMYGMVWVRQAPGKGLEWVSVISPSGGNTGYADSVKGRFTISRDNSKNTLYLQMNSLRAEDTAVYYCARAPRGYSYGYYYWGQGTLVTVSS
VL: DIQMTQSPSSLSASVGDRVTITCRASQGIGHYLAWYQQKPGKVPKLLIYTASTLQSGVPSRFSGSGSGTDFTLTISSLQPEDVATYYCQQFNSYPHTFGQGTRLEIK
As to B1, the “koff” value in assay [1] (Human Tie1 Fc coated on CM5) was found to be 0.00101 s⁻¹. Also, in assay [1] (Human Tie1 Fc coated on CM5, 750 RU), the on-rate constant (kon) amounted to 136000 M⁻¹ s⁻¹. In assay [2], the “Kon” value stood at 9300 M⁻¹ s⁻¹ and the “koff” value was 4.41e-05 s⁻¹.
